This passage reports Ka results from patent US20030170230A1 (published 2003).

For the test, the target named is tetanus toxoid (UniProt P04958 2-1315). As to the kind of experiment: ELISA.

B1: Sample C: protein from vectors pG31020, pG31030 and pG31027, consisting of FvL-AHECa, FvH-AHECb and ubiquitin-AHECc with a disulfide bridge between AHECa and … (other)
VL: MDIVMTQSQKFMSTSVGDRVSVTCKASQNVGASVAWYQQKPGQSPKILIYSASYRYSGVPDRFTGSGSGTDFTLTISNVQSEDLAEYFCQQYNGYPLTFGAGTKLELRTSDSLRLQQLFRDCEDEETWIREKEPIAASTAMDIGINSDPNSSSVDKLAAALEHHHHHH
VH: MGSGIEGRMASEVQLQQSGPELVKPGASVKMSCKASGYTFTNYIMYWVTQRPGQGLEWIGYIHPYNDDTKYNEKFKDKATLTSDRSSRTAYMELSSLTSEDSAVYYCARKKANFGYGPWFAYWGQGTLVTVSARTKHQALQAEIAGHEPRIKACTQKGNAMVEESLEHHHHHH
chain: not shown
Turning to B1, the Ka stood at 4.3e+08 M⁻¹.
